{"source": "patent US20230054860", "molecular_target": "WDR26 (endogenous) (UniProt Q9H7D7)", "sequence (Q9H7D7 whole entry)": "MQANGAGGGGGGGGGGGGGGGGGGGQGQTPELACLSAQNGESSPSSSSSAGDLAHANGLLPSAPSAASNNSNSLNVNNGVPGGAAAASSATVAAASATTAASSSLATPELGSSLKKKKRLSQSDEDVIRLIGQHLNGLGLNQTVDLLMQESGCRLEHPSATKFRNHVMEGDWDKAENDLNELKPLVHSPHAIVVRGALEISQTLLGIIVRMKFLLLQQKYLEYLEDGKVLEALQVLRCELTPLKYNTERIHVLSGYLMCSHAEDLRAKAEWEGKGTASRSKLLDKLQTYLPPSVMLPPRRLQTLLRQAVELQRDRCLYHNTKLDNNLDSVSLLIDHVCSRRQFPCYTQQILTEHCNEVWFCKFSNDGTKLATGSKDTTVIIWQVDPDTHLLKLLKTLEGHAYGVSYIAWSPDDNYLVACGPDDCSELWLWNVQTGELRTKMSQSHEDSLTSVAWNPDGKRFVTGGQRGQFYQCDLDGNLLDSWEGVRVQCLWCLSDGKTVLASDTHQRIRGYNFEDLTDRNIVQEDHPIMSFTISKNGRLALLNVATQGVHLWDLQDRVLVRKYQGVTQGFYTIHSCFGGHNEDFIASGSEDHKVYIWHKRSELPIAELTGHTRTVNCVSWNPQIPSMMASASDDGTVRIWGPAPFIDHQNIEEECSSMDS"}
{"substance": "AKT (endogenous)", "values": [{"measurement": "AKT phosphorylation levels (pAKT S473, western blot)", "result": "ultimately leading to a decrease in AKT phosphorylation levels"}]}
